Results taken from paper PMC4069020, “A 14.7 kDa Protein from Francisella tularensis subsp. novicida (Named FTN_1133), Involved in the Response to Oxidative Stress Induced by Organic Peroxides, Is Not Endowed with Thiol-Dependent Peroxidase Activity” (PLoS ONE, 2014).

Target: the molecule itself
Test: non-reducing SDS-PAGE

B1: FTN_1133 (14.7 kDa protein from Francisella tularensis subsp. novicida), recombinant His-tagged (natural protein)
chain: MAISQNVIKILQDIDELDLFSNISDEWSTLLNESDDNIKIKKLYSALVKESIRRETAERLAKDAKSYCDLVQEQAKQRISDLKESLESQITFLTQQIKDLKVESAKNLDYYRNELKKANRSLIDNKS
notes: also called His-FTN_1133
  stoichiometry N: 2
